Data on one molecule can be found in paper doi:10.1101/396861.

This data set has as its target T1, AtHYL1-FL (HYL1/DRB1 full length) (Arabidopsis thaliana, UniProt O04492 1-419).
T1 sequence: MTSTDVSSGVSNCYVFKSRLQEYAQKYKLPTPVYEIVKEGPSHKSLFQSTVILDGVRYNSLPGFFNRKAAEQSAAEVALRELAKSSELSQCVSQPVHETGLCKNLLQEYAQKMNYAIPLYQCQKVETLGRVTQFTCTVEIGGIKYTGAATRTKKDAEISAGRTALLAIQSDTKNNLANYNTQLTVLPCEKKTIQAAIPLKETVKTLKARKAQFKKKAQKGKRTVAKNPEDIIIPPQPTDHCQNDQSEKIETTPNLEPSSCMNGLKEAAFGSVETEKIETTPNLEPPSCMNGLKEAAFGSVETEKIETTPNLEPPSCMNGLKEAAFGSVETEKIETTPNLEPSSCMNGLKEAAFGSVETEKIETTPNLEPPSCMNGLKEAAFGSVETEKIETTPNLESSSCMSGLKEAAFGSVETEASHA
The experiment in a line: EMSA.

Regarding GCCCTGCAACCGAGACCACGCTTATGGAGCCTGGGACGTGGTCTCGGTTG (structured_DNA) [50-nt DNA hairpin (dsDNA hairpin loop)], the binding result is listed as “binds”.
